What was measured:
wild type DmORC = target: T1, wild type DmORC (Drosophila melanogaster, UniProt O16810+Q9W102); experiment: NADH-coupled ATPase assay (PK/LDH), Michaelis-Menten fit; format: biochemical; conditions: pH 7.6, 10 mM magnesium acetate, 300 mM potassium glutamate, 27 °C, no DNA; Orc1/4 site
T1 construct: gene Orc1; full-length heterohexamer Orc1-6; 6xHis (Orc1) and MBP (Orc4) tags cut by TEV; Hi5 insect cells; with Origin recognition complex subunit 2; Origin recognition complex subunit 3; Origin recognition complex subunit 5; Origin recognition complex subunit 6

[1] = target: T2, ATP-DmORC (DmORC^Orc1ΔN), DNA-free (Drosophila melanogaster, UniProt O16810+Q24169+Q7K2L1+Q9W102); experiment: cryo-EM structure; format: binding; conditions: no DNA, no Cdc6; active conformation
T2 construct: gene Orc1; heterohexamer; Orc1 lacking N-terminal 439 residues (truncation inferred for the DNA-free structure); tags cut by TEV; Hi5 insect cells; with Origin recognition complex subunit 2; Origin recognition complex subunit 6

[2] = target: T3, DmORC Orc1deltaN;DmCdc6deltaN241 (Drosophila melanogaster;Drosophila …, UniProt O16810;Q24168;Q7K2L1;Q9W102;Q24169;Q9Y1B2;Q9VSM9 …, |del1-241); experiment: cryo-EM; ATP, Mg2+; state 1, bend ~22 deg; Anisotropy: 1 nM dsDNA, 25 mM HEPES-KOH pH 7.6, 300 mM K-glutamate, 10 mM Mg-acetate, 10% glycerol, 0.1% NP40, 1 mM DTT, 0.1 mg/mL BSA, 0 or 1 mM ATP, 25 C, 40; conditions: protein: recombinant;recombinant; tags: tags cleaved;6xHis-MBP cleaved by TEV; copies: 1;1;1;1;1;1;1; blunt
DmORC (Orc1-6) wild type [3] = target: T4, DmORC (Orc1-6) wild type (Drosophila melanogaster, UniProt O16810;Q24168;Q7K2L1;Q9W102;Q24169;Q9Y1B2 1-924;1-618;1-721;1-459;1-460;1-257); experiment: fluorescence anisotropy; 1 mM ATP; Anisotropy: 1 nM dsDNA, 25 mM HEPES-KOH pH 7.6, 300 mM K-glutamate, 10 mM Mg-acetate, 10% glycerol, 0.1% NP40, 1 mM DTT, 0.1 mg/mL BSA, 0 or 1 mM ATP, 25 C, 40; conditions: protein: recombinant; tags: 6xHis-Orc1 and MBP-Orc4 tags cleaved by TEV; copies: 1;1;1;1;1;1; label: 5' fluorescein-dT on top strand; blunt 40 bp; the 5' fluorescein-dT may add one unpaired T
DmORC Orc1deltaN = DmORC Orc1deltaN (Drosophila melanogaster, UniProt O16810;Q24168;Q7K2L1;Q9W102;Q24169;Q9Y1B2 440-924;1-618;1-721;1-459;1-460;1-257); experiment: cryo-EM; gel filtration; ATP, Mg2+; Anisotropy: 1 nM dsDNA, 25 mM HEPES-KOH pH 7.6, 300 mM K-glutamate, 10 mM Mg-acetate, 10% glycerol, 0.1% NP40, 1 mM DTT, 0.1 mg/mL BSA, 0 or 1 mM ATP, 25 C, 40; conditions: protein: recombinant; tags: tags cleaved; copies: 1;1;1;1;1;1; blunt
[4] = target: T3, DmORC Orc1deltaN;DmCdc6deltaN241; experiment: cryo-EM; gel filtration; ATP, Mg2+; DNA bent 46 deg; Anisotropy: 1 nM dsDNA, 25 mM HEPES-KOH pH 7.6, 300 mM K-glutamate, 10 mM Mg-acetate, 10% glycerol, 0.1% NP40, 1 mM DTT, 0.1 mg/mL BSA, 0 or 1 mM ATP, 25 C, 40; conditions: protein: recombinant;recombinant; tags: tags cleaved;6xHis-MBP cleaved by TEV; copies: 1;1;1;1;1;1;1; blunt
DmORC Orc4-R97A = DmORC Orc4-R97A (Drosophila melanogaster, UniProt O16810;Q24168;Q7K2L1;Q9W102;Q24169;Q9Y1B2 1-924;1-618;1-721;1-459;1-460;1-257, R97A); experiment: fluorescence anisotropy; 1 mM ATP; Anisotropy: 1 nM dsDNA, 25 mM HEPES-KOH pH 7.6, 300 mM K-glutamate, 10 mM Mg-acetate, 10% glycerol, 0.1% NP40, 1 mM DTT, 0.1 mg/mL BSA, 0 or 1 mM ATP, 25 C, 40; conditions: protein: recombinant; tags: tags cleaved; copies: 1;1;1;1;1;1; label: 5' fluorescein-dT (/5FluorT/) on top strand; blunt 40 bp; the 5' fluorescein-dT may add one unpaired T
DmORC Orc3-K141A = DmORC Orc3-K141A (Drosophila melanogaster, UniProt O16810;Q24168;Q7K2L1;Q9W102;Q24169;Q9Y1B2 1-924;1-618;1-721;1-459;1-460;1-257, K141A); experiment: as above; conditions: protein: recombinant; tags: tags cleaved; copies: 1;1;1;1;1;1; label: 5' fluorescein-dT (/5FluorT/) on top strand; blunt 40 bp; the 5' fluorescein-dT may add one unpaired T
DmORC (Orc1-6) wild type [5] = target: T4, DmORC (Orc1-6) wild type; experiment: fluorescence anisotropy; 1 mM ATP; Hill fit (quadratic fit 1.7 nM); Anisotropy: 1 nM dsDNA, 25 mM HEPES-KOH pH 7.6, 300 mM K-glutamate, 10 mM Mg-acetate, 10% glycerol, 0.1% NP40, 1 mM DTT, 0.1 mg/mL BSA, 0 or 1 mM ATP, 25 C, 40; conditions: protein: recombinant; tags: 6xHis-Orc1 and MBP-Orc4 tags cleaved by TEV; copies: 1;1;1;1;1;1; label: 5' fluorescein-dT on top strand; blunt 40 bp; the 5' fluorescein-dT may add one unpaired T

T1 sequence (O16810 whole entry): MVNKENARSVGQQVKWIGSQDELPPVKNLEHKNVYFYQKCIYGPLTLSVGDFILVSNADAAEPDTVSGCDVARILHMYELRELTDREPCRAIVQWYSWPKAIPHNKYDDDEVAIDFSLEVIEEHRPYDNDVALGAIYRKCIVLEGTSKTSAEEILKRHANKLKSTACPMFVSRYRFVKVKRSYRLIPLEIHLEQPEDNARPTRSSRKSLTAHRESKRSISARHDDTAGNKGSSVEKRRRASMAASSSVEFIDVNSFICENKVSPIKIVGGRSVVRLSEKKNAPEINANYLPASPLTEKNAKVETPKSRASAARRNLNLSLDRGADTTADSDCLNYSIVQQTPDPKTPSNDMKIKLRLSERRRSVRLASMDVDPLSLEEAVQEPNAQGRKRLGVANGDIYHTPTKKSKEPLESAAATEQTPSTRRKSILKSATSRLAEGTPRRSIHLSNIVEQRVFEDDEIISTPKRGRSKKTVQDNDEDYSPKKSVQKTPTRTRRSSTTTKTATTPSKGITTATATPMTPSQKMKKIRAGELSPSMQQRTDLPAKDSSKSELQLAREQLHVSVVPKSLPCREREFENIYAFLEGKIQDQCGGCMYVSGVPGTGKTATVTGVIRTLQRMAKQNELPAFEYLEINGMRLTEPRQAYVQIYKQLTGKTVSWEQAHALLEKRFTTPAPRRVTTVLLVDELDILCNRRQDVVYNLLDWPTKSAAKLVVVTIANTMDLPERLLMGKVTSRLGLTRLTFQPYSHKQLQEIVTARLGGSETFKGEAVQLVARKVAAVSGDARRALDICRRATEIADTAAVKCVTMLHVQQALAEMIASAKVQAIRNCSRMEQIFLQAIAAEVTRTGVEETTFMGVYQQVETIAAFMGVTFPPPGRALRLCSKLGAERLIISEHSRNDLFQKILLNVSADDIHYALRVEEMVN
T1 sequence (Q9W102 1-459): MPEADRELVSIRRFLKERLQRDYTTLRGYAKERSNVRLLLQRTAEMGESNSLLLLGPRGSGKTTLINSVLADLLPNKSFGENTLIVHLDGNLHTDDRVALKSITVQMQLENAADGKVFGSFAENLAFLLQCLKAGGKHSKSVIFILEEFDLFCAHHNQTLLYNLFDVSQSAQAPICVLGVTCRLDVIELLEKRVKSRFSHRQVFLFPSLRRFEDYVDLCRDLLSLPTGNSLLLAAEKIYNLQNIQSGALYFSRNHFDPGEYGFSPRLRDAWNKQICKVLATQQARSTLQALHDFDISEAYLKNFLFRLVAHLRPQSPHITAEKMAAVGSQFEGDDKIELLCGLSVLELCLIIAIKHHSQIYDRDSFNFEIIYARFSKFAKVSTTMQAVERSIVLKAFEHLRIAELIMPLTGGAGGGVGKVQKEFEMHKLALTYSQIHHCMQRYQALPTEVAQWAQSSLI
T1 sequence (Q24168 whole entry partner): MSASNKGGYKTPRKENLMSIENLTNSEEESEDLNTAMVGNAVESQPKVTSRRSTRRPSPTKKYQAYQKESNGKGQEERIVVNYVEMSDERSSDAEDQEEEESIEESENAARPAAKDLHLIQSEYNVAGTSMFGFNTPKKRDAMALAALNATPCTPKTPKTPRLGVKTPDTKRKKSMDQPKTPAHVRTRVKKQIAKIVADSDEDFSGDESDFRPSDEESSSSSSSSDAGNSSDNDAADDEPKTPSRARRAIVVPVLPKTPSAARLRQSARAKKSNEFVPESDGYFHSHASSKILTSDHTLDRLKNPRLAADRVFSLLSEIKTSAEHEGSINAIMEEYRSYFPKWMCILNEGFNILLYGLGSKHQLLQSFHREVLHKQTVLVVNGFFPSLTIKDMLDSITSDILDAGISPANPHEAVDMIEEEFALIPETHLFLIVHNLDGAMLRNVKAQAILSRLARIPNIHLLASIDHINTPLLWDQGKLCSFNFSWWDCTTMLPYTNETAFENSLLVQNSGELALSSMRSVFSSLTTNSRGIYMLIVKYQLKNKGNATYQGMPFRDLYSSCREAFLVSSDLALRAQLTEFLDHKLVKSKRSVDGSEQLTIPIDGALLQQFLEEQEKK
T1 sequence (Q7K2L1 1-721 partner): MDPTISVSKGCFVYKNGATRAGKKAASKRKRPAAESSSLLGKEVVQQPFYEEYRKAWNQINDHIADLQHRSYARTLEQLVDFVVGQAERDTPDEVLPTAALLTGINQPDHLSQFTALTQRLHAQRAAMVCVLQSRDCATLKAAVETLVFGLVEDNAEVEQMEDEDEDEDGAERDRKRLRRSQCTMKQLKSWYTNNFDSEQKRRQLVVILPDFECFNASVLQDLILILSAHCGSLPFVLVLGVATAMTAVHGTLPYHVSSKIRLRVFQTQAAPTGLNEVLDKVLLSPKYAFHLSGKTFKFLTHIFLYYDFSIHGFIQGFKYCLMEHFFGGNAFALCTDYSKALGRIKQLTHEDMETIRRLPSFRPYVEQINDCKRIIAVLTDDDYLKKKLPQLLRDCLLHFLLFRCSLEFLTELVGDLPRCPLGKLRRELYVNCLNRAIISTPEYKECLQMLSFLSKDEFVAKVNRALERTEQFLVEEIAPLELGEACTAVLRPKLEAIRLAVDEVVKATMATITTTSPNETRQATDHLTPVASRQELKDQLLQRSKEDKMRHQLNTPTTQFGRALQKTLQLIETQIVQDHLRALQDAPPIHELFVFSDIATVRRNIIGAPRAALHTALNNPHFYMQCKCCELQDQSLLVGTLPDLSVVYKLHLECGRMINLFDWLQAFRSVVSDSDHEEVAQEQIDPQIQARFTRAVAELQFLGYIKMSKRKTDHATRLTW
T1 sequence (Q24169 whole entry partner): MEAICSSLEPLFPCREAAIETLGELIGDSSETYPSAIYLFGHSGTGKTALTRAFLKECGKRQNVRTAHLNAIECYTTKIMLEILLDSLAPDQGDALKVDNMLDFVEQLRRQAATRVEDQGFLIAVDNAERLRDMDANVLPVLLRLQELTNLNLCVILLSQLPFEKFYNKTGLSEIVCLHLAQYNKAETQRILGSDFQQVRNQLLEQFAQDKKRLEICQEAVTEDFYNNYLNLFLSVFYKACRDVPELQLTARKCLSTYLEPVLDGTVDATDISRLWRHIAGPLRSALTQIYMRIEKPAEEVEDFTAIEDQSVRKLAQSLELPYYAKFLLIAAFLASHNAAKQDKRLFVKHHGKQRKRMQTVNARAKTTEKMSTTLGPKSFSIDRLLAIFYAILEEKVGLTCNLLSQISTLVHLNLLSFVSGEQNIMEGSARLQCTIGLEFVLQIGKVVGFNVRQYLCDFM
T1 sequence (Q9Y1B2 whole entry partner): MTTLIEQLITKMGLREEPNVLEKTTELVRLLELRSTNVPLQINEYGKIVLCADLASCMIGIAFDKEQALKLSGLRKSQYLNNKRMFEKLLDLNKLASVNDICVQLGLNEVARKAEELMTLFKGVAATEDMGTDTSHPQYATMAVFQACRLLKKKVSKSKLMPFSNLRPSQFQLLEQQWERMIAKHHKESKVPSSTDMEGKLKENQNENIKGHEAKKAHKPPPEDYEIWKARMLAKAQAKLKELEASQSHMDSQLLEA
T2 sequence (O16810 440-924, stated change not applied): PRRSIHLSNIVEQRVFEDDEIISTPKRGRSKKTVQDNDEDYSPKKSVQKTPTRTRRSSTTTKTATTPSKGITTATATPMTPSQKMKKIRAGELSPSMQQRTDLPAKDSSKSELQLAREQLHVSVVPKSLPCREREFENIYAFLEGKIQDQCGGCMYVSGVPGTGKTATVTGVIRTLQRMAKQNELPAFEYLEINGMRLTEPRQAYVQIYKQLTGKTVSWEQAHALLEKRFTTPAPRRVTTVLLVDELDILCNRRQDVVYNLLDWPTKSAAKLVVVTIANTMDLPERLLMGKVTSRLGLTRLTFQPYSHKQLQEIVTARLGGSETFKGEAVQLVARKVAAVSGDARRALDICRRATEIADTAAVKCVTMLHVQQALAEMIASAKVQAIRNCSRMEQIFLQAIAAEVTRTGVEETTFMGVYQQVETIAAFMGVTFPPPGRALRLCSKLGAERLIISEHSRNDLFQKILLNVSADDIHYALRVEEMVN
T2 sequence (Q9W102 1-459, stated change not applied): as the sequence (Q9W102 1-459) above
T2 sequence (Q24169 whole entry, stated change not applied, the tested form may be a part): as the sequence (Q24169 whole entry partner) above
T2 sequence (Q7K2L1 1-721, stated change not applied): as the sequence (Q7K2L1 1-721 partner) above
T2 sequence (Q24168 whole entry partner, the tested form may be a part): as the sequence (Q24168 whole entry partner) above
T2 sequence (Q9Y1B2 whole entry partner, the tested form may be a part): as the sequence (Q9Y1B2 whole entry partner) above

With `Nc1ncnc2c1ncn2[C@@H]1O[C@H](COP(=O)(O)OP(=O)(O)OP(=O)(O)O)[C@@H](O)[C@H]1O` [ATP] the “NADH-coupled ATPase assay (PK/LDH), Michaelis-Menten fit” value (wild type DmORC) was “we measured the ATP hydrolysis rates of wild type DmORC” and the cryo-EM structure [1] was “our DNA-free ATP-DmORC cryo-EM structure”.

B1: 60 bp poly(dA.dT) (dsDNA)
DNA 1: AAAAAAAAAAAAAAAAAAAAAAAAAAAAAAAAAAAAAAAAAAAAAAAAAAAAAAAAAAAA
DNA 2: TTTTTTTTTTTTTTTTTTTTTTTTTTTTTTTTTTTTTTTTTTTTTTTTTTTTTTTTTTTT
B1: binds [2].

B2: 40 bp 100% GC (dsDNA)
DNA 1: CGCCGGGGCCGGGGGCGCCCCGCCGCGCGGGGCCGGGCCC
DNA 2: GGGCCCGGCCCCGCGCGGCGGGGCGCCCCCGGCCCCGGCG
With B2 the binding signal (DmORC (Orc1-6) wild type [3]) was ~20 fold higher Kd than poly(dA.dT).

B3: 60 bp AT-rich (dsDNA)
DNA 1: CCTGCAGGCCTTTTGAAAAGCAAGCATAAAAGATCTAAACATAAAATCTGTAAAATAACA
DNA 2: TGTTATTTTACAGATTTTATGTTTAGATCTTTTATGCTTGCTTTTCAAAAGGCCTGCAGG
B3: binds (DmORC Orc1deltaN); binds [4].

B4: 40 bp AT-rich (ARS1-like) (dsDNA)
DNA 1: TTTTGAAAAGCAAGCATAAAAGATCTAAACATAAAATCTG
DNA 2: CAGATTTTATGTTTAGATCTTTTATGCTTGCTTTTCAAAA
In the case of B4, the binding signal (DmORC Orc4-R97A) is reported as ~3 fold higher Kd than wild type and the binding signal (DmORC Orc3-K141A) is reported as ~3 fold higher Kd than wild type.

B5: 40 bp poly(dA.dT) (dsDNA)
DNA 1: TTTTTTTTTTTTTTTTTTTTTTTTTTTTTTTTTTTTTTTT
DNA 2: AAAAAAAAAAAAAAAAAAAAAAAAAAAAAAAAAAAAAAAA
Work on B5 yielded a Kd (DmORC (Orc1-6) wild type [5]) of 2.1 nM.

— publication PMC7450096, “Structural mechanism for replication origin binding and remodeling by a metazoan origin recognition complex and its co-loader Cdc6” (Nature Communications, 2020)
